± gives the half width of the 95% confidence interval.
Assay: folding stability dG unfold (combined trypsin and chymotrypsin); higher = more stable
Method in brief: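 Sequencing followed digestion of designed mini-proteins with trypsin and chymotrypsin, each at 11 concentrations in threefold dilutions together with a no-protease condition. The mini-proteins were under 80 residues, had no cysteine, sat in a PA-tagged cDNA display construct, and were kept only if AlphaFold2 dimer inter-PAE was above 15. From the counts, Bayesian fitting gave K50, and unfolding free energy was derived against a sequence-predicted unfolded-state K50 and a shared folded-state K50, per protease or combined.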

Sequence	folding stability dG unfold [kcal/mol]
SAGMTTLTLSAKAPPGEAVVTLTVTLPDGTTVPLATRTVAPDEVANITVSFPSGEPIDPARLTVEVTPPSAG [r5_287_JUSTAS]	0.157 ± 0.13
SAGGSAGGSAGGMVYFPESLKEEVIEELKKKGYKIKSIEKIEGGYIRITTPKNPIEIKLLSAGGSAGGSAGG [r17_379_JUSTAS]	0.8 ± 0.17
MLVVEVPAEELSPEQVRERIRAALRAAREAGIRDARIVIVVEASEEQRERLRRELRELAEEEGLEVEIVERS [r1_387_TrROS_Hall]	5.34 ± 0.18
SITITRDPDYYTLRIPPGMDSVEEVQDFLKELGFKLPPGVKDIQVEEVDKENNQVTITIQLDDPEAIQDLSA [r9_820_TrROS]	0.798 ± 0.2
SAGGMPPGDPVKVNVQIRIRMRDPNGKKPELTVPIEYNVQSKEDARDAILKIAKELADEYGYEIEVFSAGGS [r8_149_TrROS]	1.31 ± 0.24
SAGGSAGGSAGKFKIKVFTHPDGYALALIEVPLGDKPVLILTLIKFPEDGNAEAETFIFPSAGGSAGGSAGG [r11_555_TrMRF]	2.84 ± 0.13
SAGGSGMKLEKEIEVEVDPSGVGAEAVKEAVRAELEKEGYKVKVEIEVSEEEEKLYVKLHVEIYELSAGGSA [r2_172_JUSTAS]	1.57 ± 0.19
SAGGSAGGSAGGKTIVVELEDGSKATITVDEDGNVTVEVYDEKTGEKKTFTIPAEALKPSAGGSAGGSAGGS [r10_838_TrROS_Hall]	2.73 ± 0.16
SAGGKSIHIADATLEDLVDLIANLPEPVVIHVERPVTFPVLLLENGVVAAVRTETAPATLTLTIPPELSAGG [r13_632_TrMRF]	0.389 ± 0.05
SAFKIERDPGNGQRKIKIEIPIIFPMGPEMRNMFKNMIKQWLAKHNPNVDIEIDIIPVKSPEQALEQIGSAG [r14_406_TrROS]	1.98 ± 0.47
SAGGSIEELAREKALEEHKKTGEKNYPFTFEFEIVSSYEFAPDGTPVASSEFPFKITLKFKLPPKKKSAGGS [r16_156_JUSTAS]	2.43 ± 0.12
SAGGSAGGSAGGKKVKITVVLEFDGVLLVAEAEIEFDENGKIVEIKVKVELFPAPEEGEESAGGSAGGSAGG [r7_135_TrROS_Hall]	2.96 ± 0.48
SAGGSAEIPPGAKLEIDEMSFDPGNGRIEMMFKIEDPDGEPLWQIRVSWEFNPENGKMKLDIEIMPSAGGSA [r15_1028_TrROS]	3.49 ± 0.14
SAGGSAGGSAKPKLHIHILTAGPFEELAELLEELAKRIFPPELEIDIHIHYIPKELLHPELGSAGGSAGGSA [r18_498_TrMRF]	2.59 ± 0.077
SASMEAALAKVEEITAEPSWELVGVSPEGVFTIRNPETGTEIVIEIKVTSDGKGYKVTIPSKTVVPAPESAG [r14_20_JUSTAS]	1.38 ± 0.12
SAGGSAGGSAGGKKLTFKAEIVSEEEIEINGKKYRIFKVKVTLPDGSKLTLTVIVELDDLSAGGSAGGSAGG [r7_846_TrROS_Hall]	3.84 ± 0.096

Sequence	folding stability dG unfold [kcal/mol]
SAGGMPYRLDAVRVEVRPRPDGGPLLVVELTYPDGSRETAVFDSPEDLLRALENSPRFSEITLLPSVSAGGS [r16_757_TrMRF]	0.739 ± 0.046
SAKGTLELTFPTTKVTVEVEKVDPVNNKVYARAVFPNGFVVDAVFDPKTGKVYVEVKEVKPTKDGGYSLSAG [r14_466_TrMRF]	1.44 ± 0.15
SAGGSARALLEELEVLSEEDRGDFTVVTVKGPAAEYPAEEVRAALEALGIAVEYDPATGEVTVYVASAGGSA [r15_599_JUSTAS]	0.69 ± 0.071
SAGGSAGGSKKKKKVKYKIKVINPEKPEVKEIEIEAENEEEAKKLAEELAKKYPGVKVEIEKTSAGGSAGGS [r12_601_TrROS_Hall]	2.48 ± 0.095
SAGGMHLVIPFDSPEEALEAAKELKKEFEEKGYTVKVYYFPETGDIHVLVEMKTDGKTKYLNVTVPFPSAGG [r13_641_TrMRF]	1.73 ± 0.057
SAGGSAGGSAGKVIIIKVPKKDMTPEEVEKLAKELKEKFPDAKITVIEVKKDGYIIIKIDSAGGSAGGSAGG [r11_365_TrROS_Hall]	2.47 ± 0.11
SAGGSAGGSPPGWTIMMFEITISITVPRVEVYDPKDGKPRAEVPYVRVSIPIPIFIIFPAGAFSAGGSAGGS [r12_600_TrROS]	3.77 ± 0.11
SAGGSAMPPNMKKVPISIHIPAENYKRDPDGKWKFTADELARHIQRGFRQRFGMPIKKIDVHVHPPSAGGSA [r15_415_TrROS]	-0.0271 ± 0.21
SAGGSAGGEATEGTLIVGGKPVRVTVERTPEGGRIATVELPNGVTVVARLNPVTRGAEILEVVESAGGSAGG [r6_290_TrMRF]	1.17 ± 0.13
SAGGASTVEYEITLPLDPSGSVDPDTIRAAAEAIAAADPDFVDHRIEEITITRLPDGTVRFTVTISVPSAGG [r13_462_JUSTAS]	2.53 ± 0.092
SAGGSAGGSAGGPEVEVFYERGPDGPLKVVVVVRNPDTPEVTVLVADLEPEKALEFLEALSAGGSAGGSAGG [r7_105_TrMRF]	1.89 ± 0.18
SAGGSAGGSAGMTLLVKNEDGYLVKIEITEVEVDENGELHLKVKVEVLPPLEEVEEVEEESAGGSAGGSAGG [r17_536_TrROS_Hall]	1.65 ± 0.17
SAGGSAGGIKELLEALGFEVVDVEPTDNKFMIMIRNPEEGRVVVIEIEWDGPPKIEIHPMPPNASAGGSAGG [r6_195_TrROS]	2.31 ± 0.13
SAGGMISKKLNPPSKEEAEKIAEEIKKKNPNYKVTMTYDPKTGTYTITITPLPKPPPDPKNFKEIIKSAGGS [r16_674_JUSTAS]	1.48 ± 0.21
SAAAENGEITISVEVELDPETNTLTIKRVEITVNGKLIATATLTITLPPPPPEPEETVYVHPDDPEALKSAG [r14_571_TrROS_Hall]	1.85 ± 0.093
SAGGSAGMIEVEIRPTPEGGYEVLVKFYGPGGVEVEEKKYRFGSEEEAKKFLEELAKKNGYSVKIRSAGGSA [r15_242_JUSTAS]	3.3 ± 0.067

From the supplement of paper PMC12764529
